This series concerns the target FAR (FXR)-RXRalpha heterodimer (Rattus norvegicus / Homo sapiens, UniProt Q62735;P19793 Q62735:1-469,P19793:1-462). In words: cell_activity; 50 uM JH III, CV-1 cells; 17-fold JH III, 76-fold LG69, 212-fold both in p89; parental MTV reporter lacking EcREs not activated. The conditions noted are these: tags: CMV-driven expression in CV-1 cells. As to the method: Thus, with reference to FIG. 5A, CV-1 cells were transiently transfected with hsp27-EcRE×5 MTV-luciferase alone (−) or with expression vectors for rat FAR and/or human RXRα. Reporter activity was assayed after treating cells with or without 50 μM JH III.

Sequence of FAR (FXR)-RXRalpha heterodimer (Q62735 whole entry, chain 1 of 2): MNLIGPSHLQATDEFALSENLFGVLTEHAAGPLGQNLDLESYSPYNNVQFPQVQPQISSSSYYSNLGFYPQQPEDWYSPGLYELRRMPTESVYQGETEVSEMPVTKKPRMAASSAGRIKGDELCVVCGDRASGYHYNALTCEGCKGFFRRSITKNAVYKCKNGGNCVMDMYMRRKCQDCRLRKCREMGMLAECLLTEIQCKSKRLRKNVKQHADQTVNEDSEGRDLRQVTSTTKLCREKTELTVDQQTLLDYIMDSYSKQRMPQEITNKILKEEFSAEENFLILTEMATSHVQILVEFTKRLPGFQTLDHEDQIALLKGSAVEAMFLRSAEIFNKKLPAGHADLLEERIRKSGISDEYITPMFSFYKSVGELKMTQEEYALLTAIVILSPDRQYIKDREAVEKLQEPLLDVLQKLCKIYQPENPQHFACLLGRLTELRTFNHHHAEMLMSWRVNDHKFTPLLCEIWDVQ
Sequence of FAR (FXR)-RXRalpha heterodimer (P19793 whole entry, chain 2 of 2): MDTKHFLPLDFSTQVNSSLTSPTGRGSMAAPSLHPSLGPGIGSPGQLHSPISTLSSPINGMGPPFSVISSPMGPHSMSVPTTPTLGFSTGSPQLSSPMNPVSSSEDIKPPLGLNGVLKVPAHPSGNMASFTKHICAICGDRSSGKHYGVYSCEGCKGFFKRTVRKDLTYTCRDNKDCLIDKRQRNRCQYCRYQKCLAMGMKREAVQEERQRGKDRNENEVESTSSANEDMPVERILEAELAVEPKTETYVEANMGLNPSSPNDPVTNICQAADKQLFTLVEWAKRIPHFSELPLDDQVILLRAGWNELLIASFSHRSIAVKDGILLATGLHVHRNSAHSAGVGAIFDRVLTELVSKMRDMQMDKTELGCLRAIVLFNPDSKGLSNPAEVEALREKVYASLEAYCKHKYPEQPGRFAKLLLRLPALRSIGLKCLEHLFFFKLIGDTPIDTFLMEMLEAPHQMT

B1: hsp27-EcREx5 MTV-luciferase reporter (dsDNA)
DNA 1: GGTTCAATGCACT
DNA 2: AGTGCATTGAACC
Regarding B1, the activity was 10 fold.

The values above are taken from patent US6416957, “Method for modulating process mediated by farnesoid activated receptors” (The Salk Institute for Biological Studies).
